The source of these data is patent US20030124602A1 (Novartis, published 2003).

B2: GAL4 DNA binding domain fusion of human PKB alpha amino acids 411-480 (pGBT-CT) (other, yeast;human, UniProt P04386 1-147, looked up)
chain: MKLLSSIEQACDICRLKKLKCSKEKPKCAKCLKNNWECRYSPKTKRSPLTRAHLTEVESRLERLEQLFLLIFPREDLDMILKMDSLQDIKALLTGLFVQDNVNKDAVTDRLASVETDMPLTLRQHRISATSSSEESSNKGQRQLTVSIVWQHVYEKKLSPPFKPQVTSETDTRYFDEEFTAQMITITPPDQDDSMECVDSERRPHFPQFSYSASGTA
notes: range 1-147;range 411-480
B3: Gal4-AD-CTMP fusion protein encoded by pGADGH.CTMP (CTMPL fused to the GAL4 transcriptional activation domain) (other, not shown: small tags and cut ends)
chain: NSARARASAAPRPGAMLRSCAARLRTLGALCRPPVGRRLPGSEPRPELRSFSSEEVILKDCSVPNPSWNKDLRLLFDQFMKKCEDGSWKRLPSYKRTPTEWIQDFKTHFLDPKLMKEEQMSQAQLFTRSFDDGLGFEYVMFYNDIEKRMVCLFQGGPYLEGPPGFIHGGAIATMIDATVGMCAMMAGGIVMTANLNINYKRPIPLCSVVMINSQLDKVEGRKFFVSCNVQSVDEKTLYSEATSLFIKLNPAKSLT
notes: Yeast two-hybrid prey recovered from a HeLa cDNA library; also called this clone

For assay [1], the target named is T1, GAL4 DNA binding domain fusion of human PKB alpha amino acids 1-480 (pGBT-PH-KIN-CT, full-length PKB) (yeast; human, UniProt P04386 1-147; P31749 1-480).
T1 construct: range 1-147;range 1-480
Kind of assay: yeast two-hybrid.

Assay [2] concerns the target B2. Nature of the assay: yeast two-hybrid.
Assay [3] addresses T2, GAL4 DNA binding domain fusion of human PKB alpha amino acids 147-480 (pGBT-KIN-CT) (yeast; human, UniProt P04386 1-147; P31749 147-480).
T2 construct: range 1-147;range 147-480; Bait of the library screen; also called deltaPH
Kind of assay: yeast two-hybrid.

Assay [4] has as its target B3. Kind of assay: yeast two-hybrid, His auxotrophy and lacZ reporters.
In assay [5] the target is T1, GAL4 DNA binding domain fusion of human …. The assay is described as above.
The target in assay [6] is T2, GAL4 DNA binding domain fusion of human …. Described as above.

B1: human Lamin C (control plasmid pLAM5') (other, UniProt P02545-2 66-230, looked up)
chain: SEEVVSREVSGIKAAYEAELGDARKTLDSVAKERARLQLELSKVREEFKELKARNTKKEGDLIAAQARLKDLEALLNSKEAALSTALSEKRTLEGELHDLRGQVAKLEAALGEAKKQLQDEMLRRVDAENRLQTMKEELDFQKNIYSEELRETKRRHETRLVEID
notes: Two-hybrid control protein; Lamin C is an isoform of the LMNA entry
Turning to B1, the binding result in assay [1], in assay [2] and in assay [3] was “no binding” each time.

B2: the binding result in assay [4] is “binds”.

Take B3: the binding result in assay [5] and in assay [6] was “binds” each time.
